The text below walks through data of article PMC11417369, “DNA sequence and chromatin differentiate sequence-specific transcription factor binding in the human malaria parasite Plasmodium falciparum”.

Positions count from the first letter of the chain named.

The chains are these.
T1: AP2-HC D1 (Plasmodium falciparum, UniProt Q8IKR9 1316-1374)
T1 sequence: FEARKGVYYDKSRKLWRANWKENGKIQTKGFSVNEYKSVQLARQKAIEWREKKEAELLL

B1: CACACA_negctrl_site19 (dsDNA)
DNA 1: TTAAATTCGTCATTTTAAAATAATACAAAAGTTCAA
DNA 2: TTGAACTTTTGTATTATTTTAAAATGACGAATTTAA
B2: CACACA_negctrl_site1097 (dsDNA)
DNA 1: ATATTTTTAGGTGATTATTATTCGGAGAAGCGAATT
DNA 2: AATTCGCTTCTCCGAATAATAATCACCTAAAAATAT
B3: CACACA_negctrl_site1042 (dsDNA)
DNA 1: ATCAAAAAAAAAAAATTTTTTTTTTTGTTTGTTTCC
DNA 2: GGAAACAAACAAAAAAAAAAATTTTTTTTTTTTGAT
B4: CACACA_negctrl_site1057 (dsDNA)
DNA 1: TGATTTTTTTTTTTTTTTTTTTTTTTTTTAGTTTGC
DNA 2: GCAAACTAAAAAAAAAAAAAAAAAAAAAAAAAATCA
B5: CACACA_negctrl_site1800 (dsDNA)
DNA 1: TTTTAACGTAATTCAAATGAGCAGAATTTTTTAAAA
DNA 2: TTTTAAAAAATTCTGCTCATTTGAATTACGTTAAAA
B6: CACACA_negctrl_site388 (dsDNA)
DNA 1: TTATTTAAAATTTTTATGCGTATATATATAGGAACA
DNA 2: TGTTCCTATATATATACGCATAAAAATTTTAAATAA
B7: CACACA_negctrl_site1721 (dsDNA)
DNA 1: TTATATTTATATGTAATACAAAATAACAAAAAATTT
DNA 2: AAATTTTTTGTTATTTTGTATTACATATAAATATAA
B8: CACACA_negctrl_site34 (dsDNA)
DNA 1: TTATGTATATTATAAATTAATACATTTAAATTAATA
DNA 2: TATTAATTTAAATGTATTAATTTATAATATACATAA
B9: CACACA_negctrl_site18 (dsDNA)
DNA 1: TTTTTTTTTCTTCTTTTCAAATTTAAGAAATTATAA
DNA 2: TTATAATTTCTTAAATTTGAAAAGAAGAAAAAAAAA
B10: CACACA_negctrl_site1226 (dsDNA)
DNA 1: TGTTATTTAAATAATTCTTTTTAAAAGATGAATTAT
DNA 2: ATAATTCATCTTTTAAAAAGAATTATTTAAATAACA
B11: CACACA_negctrl_site869 (dsDNA)
DNA 1: TTCTTACACAAAAAAATGAAATCAATCAAAAAAAAA
DNA 2: TTTTTTTTTGATTGATTTCATTTTTTTGTGTAAGAA
B12: CACACA_negctrl_site452 (dsDNA)
DNA 1: AATATATGATAATTTTTTTTTTTTTTTTTTAAATAT
DNA 2: ATATTTAAAAAAAAAAAAAAAAAATTATCATATATT
B13: CACACA_negctrl_site191 (dsDNA)
DNA 1: TTGTTCATCTTTTTTTTTTTTTTTTTTTTTTAAATC
DNA 2: GATTTAAAAAAAAAAAAAAAAAAAAAAGATGAACAA
B14: CACACA_negctrl_site1657 (dsDNA)
DNA 1: TATTACATTATTCAAAAAAATTTATATGGTTATAGG
DNA 2: CCTATAACCATATAAATTTTTTTGAATAATGTAATA
B15: CACACA_negctrl_site966 (dsDNA)
DNA 1: TATTTGTTTGAATTTTTTTTTTTTTTTTTTTATGTG
DNA 2: CACATAAAAAAAAAAAAAAAAAAATTCAAACAAATA
B16: CACACA_negctrl_site1361 (dsDNA)
DNA 1: TTAAAATTCAAAAAAAAAAATCAGAATATCAGAAAA
DNA 2: TTTTCTGATATTCTGATTTTTTTTTTTGAATTTTAA
B17: CACACA_negctrl_site59 (dsDNA)
DNA 1: AAAAAAAAAAAAAAAAAAAAAAAAAAAAATAAAAAA
DNA 2: TTTTTTATTTTTTTTTTTTTTTTTTTTTTTTTTTTT
B18: CACACA_negctrl_site1364 (dsDNA)
DNA 1: B17 DNA 2 with T1A, A7T
DNA 2: B17 DNA 1 with T30A, A36T
B19: CACACA_negctrl_site792 (dsDNA)
DNA 1: AAAGAAAAAGAAAAAGAAAAATTAGAATATAAAATA
DNA 2: TATTTTATATTCTAATTTTTCTTTTTCTTTTTCTTT
B20: CACACA_negctrl_site980 (dsDNA)
DNA 1: ATTTTTAAGCATATCAAAAAAAAAAAAAAAATTAAT
DNA 2: ATTAATTTTTTTTTTTTTTTTGATATGCTTAAAAAT
B21: CACACA_negctrl_site279 (dsDNA)
DNA 1: TGTTTTTGTGATCATATGAAAAAATTACCTACAAGG
DNA 2: CCTTGTAGGTAATTTTTTCATATGATCACAAAAACA
B22: CACACA_negctrl_site856 (dsDNA)
DNA 1: TTTCCTGGTCAAGGGGTTACGGTTACGTCCTCTTGC
DNA 2: GCAAGAGGACGTAACCGTAACCCCTTGACCAGGAAA
B23: CACACA_negctrl_site718 (dsDNA)
DNA 1: TATAACATTTTTTTCAAAATAGCTTTAGAAATAAAG
DNA 2: CTTTATTTCTAAAGCTATTTTGAAAAAAATGTTATA
B24: CACACA_negctrl_site1354 (dsDNA)
DNA 1: TCTTTTTTTTCTTTTTTTTTATTTAAATATCAAGTA
DNA 2: TACTTGATATTTAAATAAAAAAAAAGAAAAAAAAGA
B25: CACACA_negctrl_site488 (dsDNA)
DNA 1: TTTTTAATAAAATGATTGATAATTATTAAATTAAAA
DNA 2: TTTTAATTTAATAATTATCAATCATTTTATTAAAAA
B26: CACACA_negctrl_site1530 (dsDNA)
DNA 1: TATTTTGAAATGGAAAGGATATAGAACTTAAACAAA
DNA 2: TTTGTTTAAGTTCTATATCCTTTCCATTTCAAAATA
B27: CACACA_negctrl_site1520 (dsDNA)
DNA 1: TCTTAAATTATGATAAAATATAATAAATAAATAAAT
DNA 2: ATTTATTTATTTATTATATTTTATCATAATTTAAGA
B28: CACACA_negctrl_site1716 (dsDNA)
DNA 1: TTTATAGTTTTAAACAAAGTAATACAAATGTATATA
DNA 2: TATATACATTTGTATTACTTTGTTTAAAACTATAAA
B29: CACACA_negctrl_site959 (dsDNA)
DNA 1: ATTTTTTTTTAATGCAAAAGGTGATGATCGGTCATA
DNA 2: TATGACCGATCATCACCTTTTGCATTAAAAAAAAAT
B30: CACACA_negctrl_site1196 (dsDNA)
DNA 1: AAAAATTGAATTTTTTTTTTTTTTTTGAGAAGGAAA
DNA 2: TTTCCTTCTCAAAAAAAAAAAAAAAATTCAATTTTT
B31: CACACA_negctrl_site662 (dsDNA)
DNA 1: TTGTATTATATTGTATTATGTTTAAATGAAAAAAAA
DNA 2: TTTTTTTTCATTTAAACATAATACAATATAATACAA
B32: CACACA_negctrl_site1570 (dsDNA)
DNA 1: TTTTTTTTTTTTTTTTTTTTTTTTTTTTTTTGGGGG
DNA 2: CCCCCAAAAAAAAAAAAAAAAAAAAAAAAAAAAAAA
B33: CACACA_negctrl_site758 (dsDNA)
DNA 1: TTTTAAAAAATAAAATATTATTGAAGTAAAATATGA
DNA 2: TCATATTTTACTTCAATAATATTTTATTTTTTAAAA
B34: CACACA_negctrl_site383 (dsDNA)
DNA 1: GGAACCATCCAAAAAAAAAAAAAAAATAATAATAAT
DNA 2: ATTATTATTATTTTTTTTTTTTTTTTGGATGGTTCC
B35: CACACA_negctrl_site643 (dsDNA)
DNA 1: TTTTAAAAAATATAATAATATAAATATGTTTTATAC
DNA 2: GTATAAAACATATTTATATTATTATATTTTTTAAAA
B36: CACACA_negctrl_site1514 (dsDNA)
DNA 1: GAATAAAAAAAAAAAAAAATTTATTTTATAATAAAA
DNA 2: TTTTATTATAAAATAAATTTTTTTTTTTTTTTATTC
B37: CACACA_negctrl_site1319 (dsDNA)
DNA 1: ATTTTTTTTTTTTTTTTTTTTTTTTATGAATGTTAT
DNA 2: ATAACATTCATAAAAAAAAAAAAAAAAAAAAAAAAT
B38: CACACA_negctrl_site1253 (dsDNA)
DNA 1: TAATATTTCGTTAAGTTTTAAAGAAAAAAAAAAAAA
DNA 2: TTTTTTTTTTTTTCTTTAAAACTTAACGAAATATTA
B39: CACACA_negctrl_site147 (dsDNA)
DNA 1: GATTACCTTTTTTTTTTTTTTTTTTTTTTTTTTTTC
DNA 2: GAAAAAAAAAAAAAAAAAAAAAAAAAAAAGGTAATC
B40: CACACA_negctrl_site1410 (dsDNA)
DNA 1: TAAAGTACAGGAGTAAATTGAAAAAAAAAAAAAAAA
DNA 2: TTTTTTTTTTTTTTTTCAATTTACTCCTGTACTTTA
B41: CACACA_negctrl_site822 (dsDNA)
DNA 1: TTTTTTCAATAAATAATCGTATATTGAATAATAATA
DNA 2: TATTATTATTCAATATACGATTATTTATTGAAAAAA

This data set concerns the target T1, AP2-HC D1. Nature of the data set: gcPBM; about 25 ug protein; PBS, 1% milk, 0.2 mg/ml BSA, salmon testes DNA, 0.03% Triton X-100. Conditions: tags: N-terminal GST (pGEX-4T-1), kept; label: surface-attached array probe.
For B1, the binding signal is 9.33 ln median PBM intensity, better of two orientations.

Take B2: the binding signal is 9.32 ln median PBM intensity, better of two orientations.

On to B3, for which the binding signal was 9.33 ln median PBM intensity, better of two orientations.

Consider B4, for which the binding signal was 9.25 ln median PBM intensity, better of two orientations.

B5: the binding signal is 9.36 ln median PBM intensity, better of two orientations.

Take B6: the binding signal is 9.3 ln median PBM intensity, better of two orientations.

As to B7, the binding signal is 9.33 ln median PBM intensity, better of two orientations.

With B8, the binding signal was 9.28 ln median PBM intensity, better of two orientations.

Turning to B9, the binding signal is 9.28 ln median PBM intensity, better of two orientations.

As for B10, the binding signal is 9.21 ln median PBM intensity, better of two orientations.

For the molecule B11, the binding signal is 9.37 ln median PBM intensity, better of two orientations.

On to B12, for which the binding signal is 9.23 ln median PBM intensity, better of two orientations.

For the molecule B13, the binding signal is 9.2 ln median PBM intensity, better of two orientations.

As to B14, the binding signal is 9.24 ln median PBM intensity, better of two orientations.

Regarding B15, the binding signal was 9.38 ln median PBM intensity, better of two orientations.

Consider B16, for which the binding signal was 9.36 ln median PBM intensity, better of two orientations.

With B17, the binding signal was 9.2 ln median PBM intensity, better of two orientations.

In the case of B18, the binding signal was 9.34 ln median PBM intensity, better of two orientations.

With B19, the binding signal was 9.29 ln median PBM intensity, better of two orientations.

Regarding B20, the binding signal was 9.35 ln median PBM intensity, better of two orientations.

For the molecule B21, the binding signal is 9.38 ln median PBM intensity, better of two orientations.

B22: the binding signal is 9.35 ln median PBM intensity, better of two orientations.

In the case of B23, the binding signal was 9.31 ln median PBM intensity, better of two orientations.

For the molecule B24, the binding signal was 9.2 ln median PBM intensity, better of two orientations.

Turning to B25, the binding signal was 9.22 ln median PBM intensity, better of two orientations.

For B26, the binding signal was 9.32 ln median PBM intensity, better of two orientations.

With B27, the binding signal was 9.33 ln median PBM intensity, better of two orientations.

With B28, the binding signal was 9.34 ln median PBM intensity, better of two orientations.

On to B29, for which the binding signal was 9.27 ln median PBM intensity, better of two orientations.

For B30, the binding signal is 9.23 ln median PBM intensity, better of two orientations.

For the molecule B31, the binding signal is 9.32 ln median PBM intensity, better of two orientations.

As to B32, the binding signal was 9.36 ln median PBM intensity, better of two orientations.

Regarding B33, the binding signal was 9.36 ln median PBM intensity, better of two orientations.

With B34, the binding signal is 9.18 ln median PBM intensity, better of two orientations.

B35: the binding signal is 9.34 ln median PBM intensity, better of two orientations.

With B36, the binding signal is 9.25 ln median PBM intensity, better of two orientations.

With B37, the binding signal is 9.34 ln median PBM intensity, better of two orientations.

B38: the binding signal was 9.21 ln median PBM intensity, better of two orientations.

For B39, the binding signal was 9.37 ln median PBM intensity, better of two orientations.

Take B40: the binding signal was 9.3 ln median PBM intensity, better of two orientations.

Turning to B41, the binding signal was 9.23 ln median PBM intensity, better of two orientations.
